Experimental data taken from US20150038427A1.

Target: collagen
Assay: SPR (Biacore 2000), collagen immobilised on CM-3 chip, peptide as analyte, from on-off binding kinetics

Kd: 1200 nM
Binder: RRANAALKAGELYKSILYGC [peptide … (SILY)]
